Source: a protein production outcome set (Wang et al. 2014)

assay: label from the status in PepcDB records

Protein production, failed:
MARYHIETYGCTSNRGESRDIERRLRDAGHHKVETAADADVAILNTCTVVEKTERNMLRRAKELADETADLIVTGCMALAQGEAFADADVDAQVLHWDDVPEAVTNGECPTTTPDAEPILDGVVGILPIARGCMSNCSYCITKQATGRVDSPPVEENVEKARALVHAGAKEIRITGQDTGVYGWDTGERKLPELLERIATEIEGEFRVRVGMANPGGVHGIREELAAVFAEHDEIYNFLHAPVQSGSDDVLADMRRQHEVSQYRDIVETFNDTLGEWTLSTDFIVGFPTEDDDDHEASMDLLRETRPEKINVTRFSKRPGTDAAELKGLGGQTKKDRSKAMTELKMDVVGEAHESMVGTRRDVLVVEEGTGDSVKCYDGAYRQVIVQNATDHGLEPGDFATVEVTSHQTVYAFAEPVDAAAVDDGPAETTAD
MASAHTTQTPFNRLLLTGAAGGLGKVLRETLRPYSHILRLSDIAEMAPAVGDHEEVQVCDLADKDAVHRLVEGVDAILHFGGVSVERPFEEILGANICGVFHIYEAARRHGVKRVIFASSNHVIGFYKQNETIDAHSPRRPDSYYGLSKSYGEDMASFYFDRYGIETVSIRIGSSFPEPQNRRMMSTWLSFDDLTRLLERALYTPDVGHTVVYGVSDNKTVWWDNRFASKLDYAPKDSSEVFRAKVDAQPMPADDDPAMVYQGGAFVASGPFGDK
MASAMLATLELDYFRAVSLYRRRSYERCAELCNALLQAGHDGHVQLFTTKEEEEEEQHQQQQAEHSRFGSNLQRIGPRPRGAAGGGAGAVDSGPSIMMPTWLMEGVWQLKMRALTQRVYVDDLDEDDGGNEATEEVEFERIATAARPGSSIKTAFQPRPLTSQRAQQARSRGAGVAHSSDGRLNSSRPGSAAVARPGTSLSRPGSSLGSRCGTASRIRATSAAAFNVGDATSKLYQASRLNPTIYAERETLVKALFQFLYYHEADVQKAHSLCQAVLEVERQKPSGSTGCTLSWWWQQQMGRCLLALHYPRRAEPFLQQSLTSFPHPDTYLLLSRVYQRIKQPERALLVIGEVVDSRPFDVTYRLEQARIHQAMEQQEDALQLYRLAAKLHPINVESLASIAVGYFYDNNPEMALMYYRRILSLGAQSPELYCNIALCCLYGGQIDLVLPCFQRALATATQPGQKSDIWYNLSFVAVTSGDFNLAKRCLQLCLTSDAQNGAALNNLAVLAAQSGDILGAKSYLNAAKDVMPDAAEVTTNLQFMDVHYKL
MASEVVRDSLWRYFAEFVGTFILMLFGDGAVVASLVTNGTSPGYGFIMISWGFGVVLAIYAVGPISGAHINPNVTLAFAVTKRMKWRDVIPYILFQTLGAAAAAGILLAWWGSIITKMDPPPTLYAQVGASFFTEYPNPSFWGQYWPKELLLPNSASGTSLFSEVNQVFPLWIGAFAELLMTFLLLLIVLAVTDTDSPFFNQSLAPWAIGIGYVMPFLLFEAQLTGGMINEARSWGPMLALYLFGYRTGAFNFRGQYFFVYGIPDFIGGILGALFWDYVLKPYLKYLKSNNKK

Protein production, not failed:
MARVRFENKRVNMSKLSQFGFEPNQNGQYQFRILIMQGQFEMIIELNTDGSLNTTLTDTTTSEVYVLHLTSQAHGQFVGQVAQAYQDVLYNIEQHCYDNDVFQSTPERKLIAQVKAAYGDDLEFLWPKFPQNAVWRRSDTHKWYGALLTVTSDKLALPGATHVVTVLDLRARPEDLSMLIDGQHYLPGYHMNKKHWYSILLDDVVPLATIMDDVKVSYMLAKLEHHHHHH
MARYINITLEKRGVTCKALLLDDVAPRTSKAVWDALPQSSQVFHGKYARNEIYNLVPAFAPKEPGAENTTVTPIPGDVCYFTFTSNDLKTPSHGYEADSGTDEVQTIVDLAVFYGRNNLLLNGDTGWVPGNVFATIVEGLDEMAAACQDIWMGGARDETLTFSRAEDTA
MASEDKFESVLSTRYCKNSPLVSILSETNKATLWRQLWIWLAEAEKELGLKQVTQDAIDEMKSNRDVFDWPFIRSEERKLKHDVMAHNHAFGKLCPTAAGIIHLGATSCFVQDNADLIAYRDSIDHILKRFATVIDRLAAFSLKNKEVVTVGRTHYQTASLVTVGKRGVLWAQELLMAFQSLSEFRDKMRFRGIKGATGTQDSFLTLFAGDESKVEALDELVTKKANFSNRFLITGQTYSRQQDSQLVFSLSLLGAAAKKVCTDIRVLQAFGELLEPFEKDQIGSSAMPYKKNPMKSERCCALSRKLINAPQEALTILADQGLERTLDDSAGRRMLIPDVLLTAEALLTTLQNIFEGLSVQTDNVKKIVEDEIAFLGLEKAMMMLTEEGVDRQQAHAVIRKTALEAKQLQATQKVDIRQTMADPFFDSVRDRVVGLVNNPINFTGRCVSQTESFIAKELKPTIDKYLDKSAGNVQLDV
